# From PMC4132707, “A dimeric state for PRC2” (Nucleic Acids Research, 2014)
# B1: EZH2, untagged (cleavable MBP tag removed) (natural protein)
# chain: not shown
# notes: forward primer starts at codon 2 (GQTGKKS), reverse primer holds the stop codon; Present as a subunit of the co-purified PRC2 complex, never isolated alone; also called untagged EZH2; source: Sf9, baculovirus, co-expressed and co-purified with the other PRC2 subunits (amylose resin, PreScission cleavage, SEC); not shown: His6, N-terminal, cleaved; MBP, N-terminal, cleaved
# Biological target: T1, MBP-EZH2 (uncleavable MBP fusion, three-alanine linker) (human, UniProt Q15910-2 2-751)
# T1 construct: forward primer starts at codon 2 after the three alanines, reverse primer holds the stop codon; A short linker of three alanine residues connects MBP and EZH2; no PreScission site between them; Present as a subunit of the co-purified PRC2 5m complex; also called tagged EZH2; MBP-tagged EZH2; source: Sf9, baculovirus, co-expressed and co-purified with the other PRC2 subunits (amylose resin, …)
# Test: pull-down; called co-immunoprecipitation by the paper; 0.1 mg purified nucleic acid-free PRC2 5m co-expressed with both MBP-EZH2 (uncleavable) and untagged EZH2, bound to amylose beads 30 min at 4°C in 10 mM Tris-HCl pH 7.5, 250 mM NaCl, 1 mM TCEP, washed twice, eluted with 20 mM maltose; immunoblotting (semi-quantitative for EZH2)
# Conditions: both partners purified
# T1 sequence (Q15910 other isoform, or with tags, fused parts or gaps): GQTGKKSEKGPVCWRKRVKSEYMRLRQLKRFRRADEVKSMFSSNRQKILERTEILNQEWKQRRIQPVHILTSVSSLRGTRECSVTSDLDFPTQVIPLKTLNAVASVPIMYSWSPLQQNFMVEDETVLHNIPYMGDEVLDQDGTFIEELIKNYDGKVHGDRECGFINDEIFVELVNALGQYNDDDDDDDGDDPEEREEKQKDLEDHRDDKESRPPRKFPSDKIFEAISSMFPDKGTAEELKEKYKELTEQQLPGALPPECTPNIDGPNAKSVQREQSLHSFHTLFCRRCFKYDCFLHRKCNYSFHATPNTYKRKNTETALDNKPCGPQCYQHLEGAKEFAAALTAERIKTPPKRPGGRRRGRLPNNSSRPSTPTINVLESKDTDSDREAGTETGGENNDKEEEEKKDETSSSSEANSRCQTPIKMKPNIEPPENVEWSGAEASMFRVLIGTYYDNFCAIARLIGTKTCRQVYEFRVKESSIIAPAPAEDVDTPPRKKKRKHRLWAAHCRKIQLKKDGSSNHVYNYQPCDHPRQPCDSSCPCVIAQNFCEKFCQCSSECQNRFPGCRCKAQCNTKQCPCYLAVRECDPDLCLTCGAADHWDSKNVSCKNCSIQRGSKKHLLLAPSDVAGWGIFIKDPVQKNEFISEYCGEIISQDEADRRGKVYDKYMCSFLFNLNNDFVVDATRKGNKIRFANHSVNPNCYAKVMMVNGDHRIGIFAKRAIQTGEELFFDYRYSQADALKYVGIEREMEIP
binder,measurement,value
B1,ratio of tagged to untagged EZH2 in the MBP pull down,~3 tagged:untagged
